Earlier results on four substances are cited in article PMC11528372.

Conditions in all cases: cited from earlier work
The target in data set [1] is Asp85 (UniProt position 98, WARYADWLFTT).
For data set [2], the target named is Asp121 (UniProt position 121, AYRYVDWLLTV).
In data set [3] the target is Asp97 (UniProt position 97, VFRYIDWLLTV).
For data set [4], the target named is Asp74 (UniProt position 74, WGRYIDWVVTT).

The pKa is the pH at which an ionisable group is half protonated. For the substance “Bacteriorhodopsin (BR) (Halobacterium salinarum)”, in data set [1], the pKa is roughly 2.6. Regarding “Gloeobacter rhodopsin (GR) (Gloeobacter violaceus PCC 7421)”, in data set [2], the pKa is roughly 5.9.

As to “Green-absorbing proteorhodopsin (GPR) (uncultured marine gamma proteobacterium EBAC31A08)”, in data set [3], the pKa is listed as roughly 7.9.

In the case of “Cyanorhodopsin N2098R (Calothrix sp. NIES-2098 rhodopsin) (Calothrix sp. NIES-2098)”, the pKa in data set [4] was less than 2.0.
